Reference: the supplement of paper PMC10567573

B1: RBBP5 (parent)
chain: TGTSNTTAIKSIEFARKGSCFLIN
B2: KRT34 (parent)
chain: YQSYFKTIEELQQKILCAKAENAR

Variants of: B1
Assay: protein stability index of a GFP-peptide fusion (GPS, HEK-293T) (PSI 1-6); higher = more stable
Details: c terminus: a fixed tail appended
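Also: lentivirally expressed fusions sorted by FACS into six bins by GFP to DsRed ratio, PSI derived from sequencing read proportions per bin multiplied by bin number.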

Protein stability index, by site and new letter:
I23: Y 2.58 | V 2.62 | C 2.36 | R 3.03 | D 3.02 | E 3.38 | P 2.82 | M 2.49 | F 1.98 | G 2.73 | T 3.5 | S 3.1 | Q 3.31 | K 3.62 | L 2.05 | A 2.67 | N 2.99 | H 2.79 | W 2.36
S19: A 1.62 | W 1.94 | N 2.17 | K 2.92 | F 1.61 | G 1.93 | P 2.04 | H 2.04 | L 2.56 | C 2.67 | V 2.25 | E 2.33 | D 3.72 | R 2.24 | M 1.59 | I 2.75 | Y 1.26 | T 1.79 | Q 2.24
F21: L 2.07 | K 3.48 | G 3.35 | Q 3.17 | C 2.44 | Y 2.56 | R 3.15 | D 3.83 | H 2.86 | V 2.75 | A 3.36 | M 3.52 | E 3.73 | N 3.53 | W 2.25 | T 3.5 | P 3.13 | I 2.37 | S 3.09
G18: Q 2.28 | K 2.3 | I 2.2 | H 1.74 | A 1.9 | F 1.99 | P 2.35 | N 2.18 | M 1.85 | Y 2.07 | D 2.89 | C 1.63 | R 2.15 | W 1.62 | L 2.35 | V 3.95 | E 2.62 | S 2.32 | T 1.71
A15: I 1.63 | M 1.94 | Q 2.51 | W 2.23 | T 1.79 | Y 1.74 | H 2.39 | L 2.58 | R 2.22 | V 1.66 | S 2.09 | N 2.67 | K 2.42 | P 2.46 | G 2.38
N24: T 1.76 | A 1.89 | F 2.74 | S 2.04 | E 3.01 | Q 1.79 | Y 1.96 | G 2.27 | L 2.22 | R 2.09 | C 2.38 | K 2.02 | W 2.71 | D 2.85 | P 3.12 | H 2.35 | M 2.16
L22: P 3.53 | N 3.09 | G 3.03 | Q 3.48 | D 3.15 | S 3.05 | Y 2.54 | T 3.09 | H 2.52 | F 1.99 | C 2.79 | R 2.81 | W 1.71 | M 2.64 | I 2.55 | A 2.33 | E 3.31 | K 3.21 | V 2.28
R16: Y 2.49 | D 2.7 | K 2.76 | L 3.26 | F 2.26 | P 2.34 | Q 2.73 | N 3.21 | C 1.77 | H 2.15 | G 2.42 | S 2.44 | V 1.99 | A 1.89 | T 2.26 | M 1.75 | E 3 | W 1.74 | I 3.29
K17: Y 2.22 | P 2.3 | I 1.29 | E 2.6 | T 2.46 | F 2.17 | C 1.8 | S 2.47 | M 1.73 | A 2.24 | N 2.63 | D 2.7 | W 2.11 | R 2.7 | Q 2.5 | L 1.75 | V 1.7 | G 2.24 | H 2.33
C20: T 2.56 | W 1.63 | H 2.16 | K 2.58 | I 2.23 | A 2.6 | M 2.01 | S 2.59 | P 2.74 | L 2.25 | F 1.9 | Y 2.12 | N 3.03 | G 2.49 | R 2.55 | V 2.09 | Q 2.51 | D 2.6 | E 2.98

Variants of: B2
Assay: as above
Details: c terminus: a fixed tail appended

Protein stability index: each site, then its substitutions
S3: I 1.61 | D 1.98 | L 1.77 | M 1.77 | H 1.5 | Y 2.13 | W 1.54 | N 2.23 | V 1.62 | Q 2.3 | P 1.97 | A 2.69 | F 1.8 | G 1.85 | K 1.96 | R 1.79 | E 1.67 | C 1.96 | T 1.61
F5: T 2.12 | C 2.24 | S 2.73 | L 1.81 | D 3.68 | N 3.02 | W 1.32 | R 1.6 | G 3.23 | K 2.84 | M 2.62 | E 4.08 | I 1.94 | H 2.34 | V 1.9 | Q 2.53 | A 2.01 | Y 1.62 | P 1.89
E9: A 1.77 | D 2.25 | C 1.87 | F 1.73
Y4: C 1.73 | K 1.52 | D 2.24 | T 2.98 | L 1.93 | M 1.48 | A 2.2 | I 2.27 | N 2.21 | E 1.63 | H 2.4 | S 2 | G 3.06 | F 1.86 | V 1.57 | R 2.14 | Q 2.65 | P 2.19
K6: T 2.67 | Q 2.53 | I 1.91 | A 1.96 | R 1.82 | M 2.1 | H 2.24 | Y 1.66 | E 1.85 | V 2.83 | P 1.81 | S 1.74 | W 2.18 | G 2.09 | L 2.3 | D 2.01 | C 1.51
Y1: A 3.3 | K 2.88 | D 4.17 | G 3.95 | T 3.08 | L 1.55 | R 2.94 | F 1.96 | V 2.27 | N 3.45 | E 4.59 | M 2.1 | C 2.23 | H 2.56 | Q 3.45 | P 3.59 | I 1.52 | S 2.93
Q2: D 2.13 | L 1.9 | K 2.54 | T 1.59 | N 2.28 | E 3.07 | Y 2.04 | V 1.54 | W 2.39 | F 2.53 | G 2.12 | M 2.14 | A 2.1 | H 3.43 | R 2.25 | I 1.57 | S 2.5 | C 1.88 | P 2.26
I8: G 1.48 | F 2.23 | K 2.47 | A 2.26 | H 1.62 | R 2.09 | L 1.98 | Y 2.52 | S 1.77 | W 1.42 | M 2.26 | T 1.35 | C 1.57 | E 2.6 | V 2.85 | P 2.24 | D 2.59 | Q 1.37
T7: E 2.58 | P 1.77 | G 1.96 | L 1.64 | Y 2.24 | A 2.2 | C 1.64 | F 1.81 | M 1.67 | K 1.58 | D 2.44 | V 1.72 | I 1.84 | Q 2.07 | N 2.34 | H 2.35 | R 1.86 | S 3.16
